Data published in patent US20180362652A1 (Biogen, published 2018).
Where “and” joins values, the source holds several entries; their conditions need not be identical. Equal entries are not always repeated.

Legend:
[1] = molecular target: T1, cynomolgus monkey BDCA2 (full-length, cell surface, E73 SNP form) (cynomolgus monkey, UniProt Q8WTT0 1-213 (human entry)); test: flow cytometry, whole blood pDCs of cynomolgus monkey donor 10, anti-human IgG PE secondary
T1 construct: also called cyno BDCA2; surface cynomolgus monkey BDCA2
T1 chain: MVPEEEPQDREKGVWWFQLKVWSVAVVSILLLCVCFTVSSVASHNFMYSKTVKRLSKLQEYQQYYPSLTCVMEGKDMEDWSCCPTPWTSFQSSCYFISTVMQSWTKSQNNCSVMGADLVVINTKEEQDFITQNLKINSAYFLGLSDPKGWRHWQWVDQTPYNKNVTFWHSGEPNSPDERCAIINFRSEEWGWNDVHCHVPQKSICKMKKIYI
Experimental: (§1) The maximal values were taken from the values at the plateau in each assay (FIGS. 24 and 25).
(§2) MFI of PE was calculated with FlowJo software, and EC50 curves were generated in GraphPad Prism software.

[2] = molecular target: T2, human BDCA2 (full-length, cell surface) (human, UniProt Q8WTT0 1-213); test: flow cytometry, Alexa647-labelled BIIB059 on pDCs in human whole blood, on ice
T2 construct: also called huBDCA2; surface human BDCA2
T2 sequence: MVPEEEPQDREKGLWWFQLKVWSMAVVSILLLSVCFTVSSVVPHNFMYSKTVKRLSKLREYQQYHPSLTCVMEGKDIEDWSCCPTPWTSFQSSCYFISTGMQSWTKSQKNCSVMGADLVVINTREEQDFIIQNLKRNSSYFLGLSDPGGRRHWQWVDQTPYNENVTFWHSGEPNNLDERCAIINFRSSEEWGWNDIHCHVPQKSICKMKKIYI
Experimental: (§3) Cynomolgus monkey (Toxikon, Inc, Bedford, Mass.) or human peripheral blood (Biogen Idec) were collected in sodium heparin collection tubes and maintained at room temperature. A FACS staining antibody cocktail for identifying pDCs was added to each whole blood aliquot, incorporating CD20, CD14, CD123 and HLA-DR antibodies. […] Blood was incubated on ice, protected from light, for 30 min. […] After a 10-15 min. incubation at room temperature, samples were centrifuged at 1400 rpm for 5 min. The supernatant was decanted, leaving only a pellet of white blood cells (WBC). Each WBC pellet was washed with 5 mL of FACS buffer (1% BSA+0.002% NaAzide+1 mM CaCl₂+1 mM MgCl₂ in PBS), and centrifuged at 1400 rpm for 5 min. The supernatant was decanted, and each WBC pellet was resuspended in 200 μL of FACS buffer and transferred to a 96-well round bottom plate (Fisher Scientific). The plate was centrifuged at 1400 rpm for 5 min. The supernatant was dumped out of the plate, and each WBC pellet was washed with 200 μL of FACS buffer. The plate was centrifuged at 1400 rpm for 5 min, and the supernatant dumped out of the plate. Following washing (as above), WBCs were resuspended in 200 μL of 1% paraformaldehyde (PFA) in PBS, and fixed at 4° C. overnight, protected from light. […] Each WBC pellet was resuspended in 250 μL of FACS buffer and fluorescence intensity measured on a LSRII 4-color FACS machine. […]

[3] = molecular target: T1, cynomolgus monkey BDCA2 (full-length, …); test: flow cytometry, whole blood pDCs of cynomolgus monkey donor 5, anti-human IgG PE secondary
Experimental: as §1, §2

human C1q = molecular target: T3, human C1q (human, UniProt P02745 23-245; P02746 28-253; P02747 29-245); test: C1q ELISA: antibody coated in a dilution series, human C1q at 2 µg/mL, read at 450 nm; column C (midpoint, the C value of paragraph 430) of the printed 4-parameter fit; the axis reads Concentration with no unit, the unit of the coated antibody is from the legend paragraph 61; A 0.061, B 2.527, D 2.212, R^2 1
T3 construct: also called complement component C1q
T3 sequence (P02745 23-245 limits assumed, chain 1 of 3): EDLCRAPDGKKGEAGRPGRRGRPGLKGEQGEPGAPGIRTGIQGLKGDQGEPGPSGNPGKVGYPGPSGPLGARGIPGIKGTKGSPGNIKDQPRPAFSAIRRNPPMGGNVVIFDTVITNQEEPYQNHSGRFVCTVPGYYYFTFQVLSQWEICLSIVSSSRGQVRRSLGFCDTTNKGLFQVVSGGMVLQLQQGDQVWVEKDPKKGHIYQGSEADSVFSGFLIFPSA
T3 sequence (P02746 28-253 limits assumed, chain 2 of 3): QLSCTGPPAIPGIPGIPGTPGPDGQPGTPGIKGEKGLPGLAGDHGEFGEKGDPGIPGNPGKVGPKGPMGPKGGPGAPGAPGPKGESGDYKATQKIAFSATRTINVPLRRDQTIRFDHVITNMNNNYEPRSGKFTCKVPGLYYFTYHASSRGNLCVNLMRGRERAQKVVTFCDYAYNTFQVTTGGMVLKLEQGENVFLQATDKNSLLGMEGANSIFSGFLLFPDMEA
T3 sequence (P02747 29-245 limits assumed, chain 3 of 3): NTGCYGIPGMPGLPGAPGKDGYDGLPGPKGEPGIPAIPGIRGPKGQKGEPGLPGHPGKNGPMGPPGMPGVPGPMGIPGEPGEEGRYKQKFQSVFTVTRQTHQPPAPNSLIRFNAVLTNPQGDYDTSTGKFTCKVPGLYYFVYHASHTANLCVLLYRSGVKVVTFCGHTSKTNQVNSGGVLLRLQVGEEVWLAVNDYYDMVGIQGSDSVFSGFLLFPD

[4] = molecular target: T1, cynomolgus monkey BDCA2 (full-length, …); test: flow cytometry, whole blood pDCs of cynomolgus monkey donor 12, anti-human IgG PE secondary
Experimental: (§4) The MFI of PE was calculated in FlowJo software, and the percent of maximal binding, using the 40 μg/mL point as 100%, was computed. Each line represents one individual cynomolgus monkey, for a total of twelve cynomolgus monkeys, and graphed using GraphPad Prism software (four-parameter nonlinear regression curve fit of log-transformed data). Staining was repeated once a week for three weeks total.
as §1, §2

[5] = molecular target: T1, cynomolgus monkey BDCA2 (full-length, …); test: flow cytometry, Alexa647-labelled BIIB059 on pDCs in cynomolgus monkey whole blood, on ice
Experimental: as §3

[6] = molecular target: T1, cynomolgus monkey BDCA2 (full-length, …); test: flow cytometry, whole blood pDCs of cynomolgus monkey donor 8, anti-human IgG PE secondary
Experimental: as §4, §1, §2

[7] = molecular target: T1, cynomolgus monkey BDCA2 (full-length, …); test: flow cytometry, whole blood, Alexa647-labeled BIIB059 on pDCs
Experimental: as §3

[8] = molecular target: T2, human BDCA2 (full-length, cell surface); test: as above
Experimental: as §3

[9] = molecular target: T1, cynomolgus monkey BDCA2 (full-length, …); test: flow cytometry, whole blood pDCs of cynomolgus monkey donor 2, anti-human IgG PE secondary
Experimental: as §4, §1, §2

[10] = molecular target: T1, cynomolgus monkey BDCA2 (full-length, …); test: cell-based or functional assay

- EC50 [1]: 1.2 µg/mL
- EC50 [2]: 1.44 µg/mL
- EC50 [3]: 0.71 µg/mL
- EC50 (human C1q): 2.5 µg/mL
- EC50 [4]: 1.6 µg/mL
- EC50 [5]: 0.944 µg/mL
- EC50 [6]: 1.2 µg/mL
- EC50 [7]: 2 µg/mL and 7 nM to 13 nM
- EC50 [9]: 1 µg/mL
- EC50 of BDCA2 internalization on pDCs (cynomolgus monkey 3, IV 10 mg/kg) [10]: 0.15 µg/mL
- EC50 of BDCA2 internalization on pDCs (cynomolgus monkey 4, SC 0.2 mg/kg) [10]: 0.088 µg/mL
- EC50 of BDCA2 internalization on pDCs (cynomolgus monkey 5, IV 1 mg/kg) [10]: 0.087 µg/mL
- EC50 of BDCA2 internalization on pDCs (cynomolgus monkey 6, IV 1 mg/kg) [10]: 0.025 µg/mL
- EC50 of BDCA2 internalization on pDCs (cynomolgus monkey 6, SC 0.2 mg/kg) [10]: 0.046 µg/mL
- EC50 of BDCA2 internalization on pDCs (cynomolgus monkey 7, IV 1 mg/kg) [10]: 0.09 µg/mL
- EC50 of BDCA2 internalization on pDCs (cynomolgus monkey 8, IV 10 mg/kg) [10]: 0.37 µg/mL
- EC50 of BDCA2 internalization on pDCs (cynomolgus monkey 10, IV 10 mg/kg) [10]: 0.126 µg/mL
- EC50 of BDCA2 internalization on pDCs (cynomolgus monkey 12, SC 0.2 mg/kg) [10]: 0.121 µg/mL
- EC50 of BDCA2 internalization on pDCs (mean of the cynomolgus monkeys) [10]: 0.123 µg/mL
B1: BIIB059 (antibody, human IgG1, kappa)
heavy: not shown
light: DIQLTQSPSSLSASVGDRVTITCKASQSVDYDGDSYMNWYQQKPGKAPKLLIYAASTLESGVPSRFSGSGSGTDFTLTISSLQPEDFATYYCQQANEDPRTFGQGTKVEIKRTVAAPSVFIFPPSDEQLKSGTASVVCLLNNFYPREAKVQWKVDNALQSGNSQESVTEQDSKDSTYSLSSTLTLSKADYEKHKVYACEVTHQGLSSPVTKSFNRGEC
notes: Humanized IgG1 kappa, mature chains; in some assays labelled with Alexa647; also called hu24F4 H4/L1 C95A; H4-L1-C95A (YL751/YL746)
- EC50 [8]: 1 µg/mL to 2 µg/mL (2×) and 7 nM to 13 nM
